Data on one molecule can be found in paper PMC12561412, “Aptamer‐Mediated Artificial Synapses for Neuromorphic Modulation of Inflammatory Signaling via Organic Electrochemical Transistor”.

For one data set, the target named is interferon-gamma (IFN-γ) (UniProt P01579 24-161). In words: organic electrochemical transistor, aptamer on Au gate; no noticeable current change; SPR: PBS-P+ pH 7.4, 5% DMSO, CM5 chip, 30 uL/min, 60 s injections, temperature not stated; OECT: PBS 1x pH 7.4 (also albumin, serum), VDS 0.1 V. Conditions: protein: commercial; chain copies: 2.
interferon-gamma (IFN-γ), sequence (P01579 24-161): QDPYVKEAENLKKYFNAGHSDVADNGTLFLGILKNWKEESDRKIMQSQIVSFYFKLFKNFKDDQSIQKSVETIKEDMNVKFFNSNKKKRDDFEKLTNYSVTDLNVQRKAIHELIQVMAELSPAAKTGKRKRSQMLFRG
In another data set the target is T1, interleukin-11 (IL-11) (UniProt P20809 22-199).
T1 sequence: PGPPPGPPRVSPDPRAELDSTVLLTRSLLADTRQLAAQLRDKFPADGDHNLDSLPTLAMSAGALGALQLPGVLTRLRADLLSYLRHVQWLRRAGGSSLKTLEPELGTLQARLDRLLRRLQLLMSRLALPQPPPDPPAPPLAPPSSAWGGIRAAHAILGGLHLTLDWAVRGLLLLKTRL
Described as above. The settings on record: protein: commercial.

A further data set addresses interleukin-6 (IL-6) (UniProt P05231 30-212). In words: organic electrochemical transistor, aptamer on Au gate; PBS; linear response 0.5 pM to 50 nM; also in ALB and serum; SPR: PBS-P+ pH 7.4, 5% DMSO, CM5 chip, 30 uL/min, 60 s injections, temperature not stated; OECT: PBS 1x pH 7.4 (also albumin, serum), VDS 0.1 V. The settings on record: protein: commercial.

interleukin-6 (IL-6), sequence (P05231 30-212): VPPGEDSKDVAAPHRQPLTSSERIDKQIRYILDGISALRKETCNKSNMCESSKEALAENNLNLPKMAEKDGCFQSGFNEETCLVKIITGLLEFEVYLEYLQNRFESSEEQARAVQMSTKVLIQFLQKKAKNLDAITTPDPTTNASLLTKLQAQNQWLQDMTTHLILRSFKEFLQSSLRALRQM

GGTGGCAGGAGGACTATTTATTTGCTTTTCT (ssDNA, 5' C6 thiol, immobilized on gold via Au-S) [IL-6 aptamer, thiolated, on Au gate]: the binding result with interferon-gamma (IFN-γ) is recorded as “no binding”; with interleukin-11 (IL-11), “no binding”; with interleukin-6 (IL-6), “binds”.
